Measured values from patent US20190032036.

What was measured:
Assay in all cases: cell_activity
[1] = biological target: SpCas9 R780A R780A (Streptococcus pyogenes) (UniProt Q99ZW2)
[2] = biological target: SpCas9 R1060A R1060A (Streptococcus pyogenes) (UniProt Q99ZW2)
[3] = tested on: SpCas9 R976A R976A (Streptococcus pyogenes)
[4] = biological target: SpCas9 K855A (Streptococcus pyogenes) (UniProt Q99ZW2)
[5] = biological target: SpCas9 K1003A K1003A (Streptococcus pyogenes) (UniProt Q99ZW2)
[6] = biological target: SpCas9 K810A K810A (Streptococcus pyogenes) (UniProt Q99ZW2)
[7] = tested on: SpCas9 H982A H982A (Streptococcus pyogenes)
[8] = biological target: SpCas9 K848A K848A (Streptococcus pyogenes) (UniProt Q99ZW2)

| Substance | activity ([1]; WT 8.8) [% indel] | activity ([2]; WT 8.8) [% indel] | activity ([3]; WT 8.8) [% indel] | activity ([4]; WT 8.8) [% indel] | activity ([5]; WT 8.8) [% indel] | activity ([6]; WT 8.8) [% indel] | activity ([7]; WT 8.8) [% indel] | activity ([8]; WT 8.8) [% indel] | activity ([1]; WT 10.5) [% indel] | activity ([2]; WT 10.5) [% indel] | activity ([3]; WT 10.5) [% indel] | activity ([4]; WT 10.5, on-target 25.1 in same table) [% indel] | activity ([5]; WT 10.5) [% indel] | activity ([6]; WT 10.5) [% indel] | activity ([7]; WT 10.5) [% indel] | activity ([8]; WT 10.5) [% indel] |
| --- | --- | --- | --- | --- | --- | --- | --- | --- | --- | --- | --- | --- | --- | --- | --- | --- |
| EMX1(1) sgRNA guide ; EMX1 OT46 | 0.1 | 1.8 | 0.1 | 0.3 | 2.8 | 0.1 | 0.4 | 0.1 |  |  |  |  |  |  |  |  |
| EMX1(1) sgRNA guide ; EMX1 OT25 |  |  |  |  |  |  |  |  | 0 | 1.3 | 0.1 | 0.2 | 4.1 | 0.1 | 0.5 | 0.1 |
